Measurements: PMC11472046 (2024)

Legend:
[1] = target: H3K9me3 mononucleosome (trimethyl-lysine at 9 (H3K9me3)); experiment: apparent K1/2 by EMSA
[2] = target: H3K9me0 mononucleosome; experiment: apparent K1/2 by EMSA

B1: Chp2-WT (recombinant) (natural protein)
chain: MVKSADLDLMNSIISESDENFSPPPFTVEEAENSINNKSSTASLESPQNGSWHPSLYGLSVPEKTHIQNSLDLYSHGNSGSQKTHNVSFSCEIRKVKSSKLSPISNMEDSEDKKEEDESSSYKNEFKSSSSASVSSNFEKTSGSDDHNSQSPVPLNEGFEYIASSGSEDKNSDEEFAVEMILDSRMKKDGSGFQYYLKWEGYDDPSDNTWNDEEDCAGCLELIDAYWESRGGKPDLSSLIRLTRSRARSSNEASYVEKDESSNSDDSISYKRRRSRNAANRITDYVDSDLSESSMKEKQSKIEKYMKSDKSSKNFKPPFQKKSWEDLVDCVKTVQQLDNGKLIAKIKWKNGYVSTHDNIIIHQKCPLKIIEYYEAHIKFT
B1 was tested, and the Kd [1] was 66 nM and the Kd [2] was 134 nM.

B2: Chp2 W199A (recombinant) (natural protein)
chain: MVKSADLDLMNSIISESDENFSPPPFTVEEAENSINNKSSTASLESPQNGSWHPSLYGLSVPEKTHIQNSLDLYSHGNSGSQKTHNVSFSCEIRKVKSSKLSPISNMEDSEDKKEEDESSSYKNEFKSSSSASVSSNFEKTSGSDDHNSQSPVPLNEGFEYIASSGSEDKNSDEEFAVEMILDSRMKKDGSGFQYYLKAEGYDDPSDNTWNDEEDCAGCLELIDAYWESRGGKPDLSSLIRLTRSRARSSNEASYVEKDESSNSDDSISYKRRRSRNAANRITDYVDSDLSESSMKEKQSKIEKYMKSDKSSKNFKPPFQKKSWEDLVDCVKTVQQLDNGKLIAKIKWKNGYVSTHDNIIIHQKCPLKIIEYYEAHIKFT
B2 was tested, and the Kd [1] was 145 nM and the Kd [2] was 135 nM.
